According to the supplement of paper PMC9170038:
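Further: bound reporter read as fluorescence of individual clusters on recovered sequencing chips by microscopy, with normalized cluster intensities fitted with a binding model.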

Each sequence was assayed on K4 kissing-loop RNA reporter (assay: apparent KD of K4 kissing-loop reporter; higher = weaker reporter binding). Conditions: Eterna round: R107; input ligand: none.
Method: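 RNA-MaP round R107: designed RNA switches with theophylline, tryptophan, arginine or FMN aptamers are transcribed on-chip within common flanks. They are titrated with a labelled K4 kissing-loop RNA reporter in RNA-MaP buffer (100 mM Tris pH 7.5, 80 mM KCl, 4 mM MgCl2), without ligand or with the indicated ligand. Median apparent KD per design.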
With “UUUGGCCACAGAGAUACCAGUCAUAUCGCUCUGGAGUGAUGUUCCGGAACAUGCGGAGAAGACCCUUGGCAGCUCAUGACGGUAA [Exclusion Theophylline B GF 2]” the “apparent KD of K4 kissing-loop reporter” value was 196 nM. In the case of “GGGUCUGCUCGAAGGAGCGCCCUGACAGGUUGCUGCCGUGGGCAGUGAUGUUGCUCAGUCCGGCAGGUAGGUCGCGAGCAGACCC”, the “apparent KD of K4 kissing-loop reporter” value is reported as 102 nM. For “GGUCGAGUGAUGUUCGAUGUAAUGCAUUCAGAGGAUAUAGGAUUGGCUAGAAGGCUGAAUCGUUCUUCGAGUGAUGUUCGAGGAU [Same State FMN A GF 7]”, the “apparent KD of K4 kissing-loop reporter” value was 213 nM. With “UGGAGUUGACGAAAAGUCAACUCCUGAGAAGGAGCGGACGAAAGUCCAGGUAGGUCGCUCACUACCAGUGAUGUUGGUACUUUAA” the “apparent KD of K4 kissing-loop reporter” value was 320 nM. With “ACAGAGGUAACCUGCAGUGAUGUUGCGGAUACCAGCUCACGAAACAGCCCUUGGCAGCCGCCGUCACUAACACGGUGGAUACAGU [theeternabot_exclusion_KL_Theo_A_49]” the “apparent KD of K4 kissing-loop reporter” value was 230 nM. “UGCAGUGAUGUUGCUAUUUUUCUUGAUUAACGAGGACCGGUACGGCCGCCACUCGAUUUCUCUCUAAUCCAGUAUGUUGUUUAAU [whbob_EX_Tryp_A_t4]” was tested, and the “apparent KD of K4 kissing-loop reporter” value was 114 nM. For “CCUGAAUCAGUGAGUGAUGUUCACGUCGAUACCAGCUAGGAUACUAGCCCUUGGCAGCGACAAUUGCCAAGUGUGGCUAGUCAAA [Theo B SS t8]”, the “apparent KD of K4 kissing-loop reporter” value was 160 nM. In the case of “AGAACUGUCUGAGAUACCAGCCAGGAAGUGAUGUUUCCAGCUCGACGAAAGUCGAGCCAUGGCCCUUGGCAGCUCAGACAGUUCA [Omei KL Theo B SS A v4]”, the “apparent KD of K4 kissing-loop reporter” value is reported as 149 nM. With “GGAGUUACCUGGGAUACCAGUCGGAGUCCGAGAGCUCGGAGUGAUGUUCUGGGAUGUUUCGGCCCUUGGCAGCUCUGGGACUCCC [#2 Exclusion - Theophylline B Attempt #10 (HarryS)]” the “apparent KD of K4 kissing-loop reporter” value was 241 nM. “ACGUAGUUCUAGGAUACCAGCCAAAUAGCCAGGACGAGAGUCCUGGCUGCCAGUGAUGUUGGCCCUUGGCAGCCUAGAACUACGA [Theo B Ex Mod Omei v10]” was tested, and the “apparent KD of K4 kissing-loop reporter” value was 138 nM. For “GCAUCCUCUGCAGGAUAUCGCGGAGUGAUGUUCCGCGCAUGCCAUAGCGAAAGCUAUGGCAUGCGACGAGAAGGGCAGAGGAUGC”, the “apparent KD of K4 kissing-loop reporter” value was 147 nM. “AAUAUAUAGUGAAGGAGCGCGAUAAGCAGUGAUGUUGCUUAGCUAUUAUUCAUUAUUUUUACGCAGGUAGGUCGCACUAUAUAUA [JR_ExcArginiB_Sub014]” was tested, and the “apparent KD of K4 kissing-loop reporter” value was 144 nM. “AGUGAUGUUUUUUUUAAGAGUGAUGUUUUUCGAGGACCGGUACGGCCGCCACUCGAGUGAUGAGUGAGGUGUUGUGAUGUUUAGU [cxmullin]” was tested, and the “apparent KD of K4 kissing-loop reporter” value was 458 nM. With “GCGCGGGAGUGAUGUUCCAAGUGGUGUUAACGAGGACCGGUACGGCCGCCACUCGUUACGGCCGGGCCGUAGGAUAAACUGGCGC [Same State - Tryptophan A (Freestyle 15)]” the “apparent KD of K4 kissing-loop reporter” value was 479 nM. “AAGCAGUCUCUUGUAAUCAUCGAAGAUGAACGAGGACCGGUACGGCCGCCACUCGGAGUGAUGUUCCGAAGACUGCAAAAUAAAA [MatMod 16 - Jieux - Exclusion - Tryptophan A]” was tested, and the “apparent KD of K4 kissing-loop reporter” value was 676 nM. In the case of “UACAUUGCAGUCUUCUUCGUCCUAGAAGACUAGGAUAUCAGGAAACUGAGAAGGAGUCUCUGCAGUGAUGUUGCAGCUAGGACGA [[K]'-[F2]'-[F1]'-[F1]-[F2]-[K1]-[K2]-[F]''_Design1]”, the “apparent KD of K4 kissing-loop reporter” value is reported as 103 nM. With “GGAGCAGGUGAAGGAUAUCCCGGGCCAGAGUGAUGUUCUGGAUCCCUUGCCGUGUCUAAACGGGUGGGAGAAGGUCACUGAUAAG [Erinxe]” the “apparent KD of K4 kissing-loop reporter” value was 213 nM. In the case of “AAAAUUAUCUGAAGGAGCGUGAAAUAAUAUUAAACAUAACAACCCAGUGAUGUUGGGUUAUCACAGGUAGGUCGCAGAUGUAGAA [Same State Arginie B GF 25]”, the “apparent KD of K4 kissing-loop reporter” value is reported as 108 nM. In the case of “AAGUAGCUCUCGGCCGCCACUCCUCAGUGAUGUUGAGAUAUUAAGAGACAAUUGUCUCAUAUAAAGAGGACCGGGAGAGCUACAA [AK5 SS Tryptophan B]”, the “apparent KD of K4 kissing-loop reporter” value is reported as 439 nM. For “GCGCGGCAGGCGGCCGCCACUCUGACGAGCCACAGUGAUGUUGUGGUCGGAGUAACGUCUUCAUAGAGGACCGGGUUUGUUGUUC [Same State Typtophan A GF 26]”, the “apparent KD of K4 kissing-loop reporter” value was 239 nM. “ACUGAGCAUGCGGCCGCCACUUCAGAACGUCGCCCGGAGGGCGACGCCUCCGCAGUGAUGUUGCGGAGGACCGGGCAUGUUCAGA [Omei KL Tryp B Exc A v4]” was tested, and the “apparent KD of K4 kissing-loop reporter” value was 99.8 nM. “AAGUGUGUGGCGGCCGCCACUAGAAUCCAGUGAUGUUGGAGAUAUCAGGUAACUGAUAUCCAACAUAGGACCGGGCCAUAUAGAA [Same State - Tryptophan B (Freestyle 11)]” was tested, and the “apparent KD of K4 kissing-loop reporter” value was 144 nM.

Same assay, conditions: Eterna round: R107; input ligand: theophylline 20 uM
With “GGCAGUGAUGUUGCCUAAGCAACGCAUGCAGAGGAUAUUCGUUCGGGAAGAAGGCUGCAGCGUUCUCUCGUCAGUGAUGUUGGCG [Same State FMN A GF 24]” the “apparent KD of K4 kissing-loop reporter” value was 130 nM. With “GCAGCAAAUAAACGAGUGAUGUUCGACGAUACCAGCCUCGAUAGAGGCCCUUGGCAGCGUAAAUGAUCACAAAGCCAAGGGCUGC [#SwitchBubble 1]” the “apparent KD of K4 kissing-loop reporter” value was 366 nM. With “CUUGCCCUUUCGGCCGCCACUCCGAGUGAUGUUGGGAUGUUCGGUGCAGCCAUUUAGAUGUCAGUGAGGACCGGGAAAUUAUGCG [theeternabot_exclusion_KL_Trp_B_9]” the “apparent KD of K4 kissing-loop reporter” value was 150 nM. “CGAGUGAUGUUCGUUCUUUUAUUUUUUUGACAGGAUAUGCGGAAACGCAGAAGGGUCACCUUUGAGUUAAAAGAAUUUAAGUUAU [Ex FMN A 24]” was tested, and the “apparent KD of K4 kissing-loop reporter” value was 287 nM. With “UCGGACCCUGGAGGAUAUGAGUCUAGUGAUGUUAGGCGGUCCAUGCCGGUGCGGCGUUAUGCCCUUUUAGAAGGCCAGGGUCCGA [#2 Exclusion - FMN B Attempt #14 (HarryS)]” the “apparent KD of K4 kissing-loop reporter” value was 102 nM.
